Changes are numbered by the printed parent chain. Numbers in names are those of the source.
T1: recombinant cynomolgus monkey (Macaca fascicularis) TfR1 (cynomolgus monkey (Macaca fascicularis), UniProt Q5RDH6 87-760 (Pongo abelii entry), limits assumed)
T1 construct: Recombinant protein; also called cTfR1; cyTfR1
T1 chain: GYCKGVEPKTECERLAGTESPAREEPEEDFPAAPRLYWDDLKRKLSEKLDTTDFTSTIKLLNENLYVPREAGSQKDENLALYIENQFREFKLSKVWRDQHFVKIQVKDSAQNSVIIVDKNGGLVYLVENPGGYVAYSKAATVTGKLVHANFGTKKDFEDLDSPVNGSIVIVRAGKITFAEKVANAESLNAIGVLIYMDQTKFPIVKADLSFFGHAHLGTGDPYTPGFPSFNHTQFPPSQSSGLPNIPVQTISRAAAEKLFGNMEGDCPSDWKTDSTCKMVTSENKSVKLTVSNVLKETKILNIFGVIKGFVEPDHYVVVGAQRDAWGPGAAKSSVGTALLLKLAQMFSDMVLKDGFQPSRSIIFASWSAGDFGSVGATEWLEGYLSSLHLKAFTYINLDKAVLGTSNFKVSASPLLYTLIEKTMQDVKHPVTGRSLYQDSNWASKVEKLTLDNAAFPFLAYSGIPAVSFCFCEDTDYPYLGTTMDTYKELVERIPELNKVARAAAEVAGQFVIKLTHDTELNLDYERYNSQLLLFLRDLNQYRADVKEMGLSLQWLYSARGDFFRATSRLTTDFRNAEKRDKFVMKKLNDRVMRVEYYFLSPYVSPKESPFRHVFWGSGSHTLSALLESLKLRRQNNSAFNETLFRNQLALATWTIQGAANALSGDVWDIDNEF

B1: humanized anti-TfR Fab 3M12 VH3/Vκ3 (Fab, V domains shown)
VH: QVQLQESGPGLVKPSQTLSLTCSVTGYSITSGYYWNWIRQPPGKGLEWMGYITFDGANNYNPSLKNRVSISRDTSKNQFSLKLSSVTAEDTATYYCTRSSYDYDVLDYWGQGTTVTVSS
VL: DIQMTQSPSSLSASVGDRVTITCRASQDISNFLNWYQQKPGQPVKLLIYYTSRLHSGVPSRFSGSGSGTDFTLTISSLQPEDFATYYCQQGHTLPYTFGQGTKLEIKR
notes: also called 3M12 (VH3/Vk3)
B2: humanized anti-TfR Fab 3M12 VH4/Vκ2 (Fab, V domains shown)
VH: B1 VH with S23T, M49I
VL: B1 VL with Y87F
notes: also called 3M12 (VH4/Vk2)
B3: conjugate of humanized anti-TfR Fab 5H12 VH5 (C33D)/Vκ4 with DMPK-targeting oligonucleotide ASO300 (Fab, V domains shown)
VH: QVQLVQSGAEVKKPGASVKVSCKASGYSFTDYDINWVRQAPGQGLEWMGWIYPGSGNTRYSERFKGRVTITRDTSASTAYMELSSLRSEDTAVYYCAREDYYPYHGMDYWGQGTLVTVSS
VL: DIVMTQSPDSLAVSLGERATINCRASESVDGYDNSFMHWYQQKPGQPPKLLIFRASNLESGVPDRFSGSGSGTDFTLTISSLQAEDVAVYYCQQSSEDPWTFGQGTKLEIKR
modifications: oligonucleotide ASO300 conjugated to the Fab via linker; residue and chain not stated
notes: also called 5H12 (VH5-C33D/Vk4) conjugate
B4: humanized anti-TfR Fab 5H12 VH5 (C33D)/Vκ4 (Fab, V domains shown)
VH: B3 VH
VL: B3 VL
notes: also called 5H12 (VH5-C33D/Vk4)
B5: conjugate of humanized anti-TfR Fab 5H12 VH5 (C33Y)/Vκ3 with DMPK-targeting oligonucleotide ASO300 (Fab, V domains shown)
VH: B3 VH with D33Y
VL: B3 VL with M4L, G72R
modifications: oligonucleotide ASO300 conjugated to the Fab via linker; residue and chain not stated
notes: also called 5H12 (VH5-C33Y/Vk3) conjugate
B6: conjugate of humanized anti-TfR Fab 3A4 VH3/Vκ4 with DMPK-targeting oligonucleotide ASO300 (Fab, V domains shown)
VH: EVQLVQSGSELKKPGASVKVSCTASGFNIKDDYMYWVRQPPGKGLEWIGWIDPENGDTEYASKFQDRVTVTADTSTNTAYMELSSLRSEDTAVYYCTLWLRRGLDYWGQGTLVTVSS
VL: DIVMTQSPLSLPVTPGEPASISCRSSKSLLHSNGYTYLFWFQQRPGQSPRLLIYRMSNLASGVPDRFSGSGSGTDFTLKISRVEAEDVGVYYCMQHLEYPFTFGGGTKVEIKR
modifications: oligonucleotide ASO300 conjugated to the Fab via linker; residue and chain not stated
notes: also called 3A4 (VH3/Vk4) conjugate
B7: humanized anti-TfR Fab 3A4 VH3/Vκ4 (Fab, V domains shown)
VH: B6 VH
VL: B6 VL
notes: also called 3A4 (VH3/Vk4)

Key:
[1] = target: T1, recombinant cynomolgus monkey (Macaca …); experiment: ELISA, recombinant TfR1 coated, unconjugated Fab (row 'Fab binding affinity ELISA')
[2] = target: T2, recombinant human TfR1 (transferrin receptor protein 1) (human, UniProt P02786 89-760); experiment: as above
T2 construct: Recombinant protein in SPR and ELISA; they were assigned to this molecule; also called hTfR1; huTfR1

[3] = target: T2, recombinant human TfR1 (transferrin …); experiment: Biacore, d25; TfR1 species not stated
[4] = target: T1, recombinant cynomolgus monkey (Macaca …); experiment: Table 14, unconjugated Fab, d9 (after 9 days at 40 C); method not named
[5] = target: T2, recombinant human TfR1 (transferrin …); experiment: as above
[6] = target: T1, recombinant cynomolgus monkey (Macaca …); experiment: Table 14, unconjugated Fab, d0; method not named (values equal ELISA row of Table 13)
[7] = target: T2, recombinant human TfR1 (transferrin …); experiment: as above
[8] = target: T2, recombinant human TfR1 (transferrin …); experiment: Biacore, d0; TfR1 species not stated
[9] = target: T2, recombinant human TfR1 (transferrin …); experiment: kinetic analysis (Biacore), Table 7; TfR1 species not stated
[10] = target: T1, recombinant cynomolgus monkey (Macaca …); experiment: Table 14, Fab-ASO300 conjugate; method not named
[11] = target: T2, recombinant human TfR1 (transferrin …); experiment: Table 14, Fab-ASO300 conjugate; method not named
[12] = target: T1, recombinant cynomolgus monkey (Macaca …); experiment: ELISA, recombinant TfR1 coated, Fab-ASO300 conjugate (row 'Conjugate binding affinity ELISA')
[13] = target: T2, recombinant human TfR1 (transferrin …); experiment: as above

T2 sequence (P02786 89-760 limits assumed): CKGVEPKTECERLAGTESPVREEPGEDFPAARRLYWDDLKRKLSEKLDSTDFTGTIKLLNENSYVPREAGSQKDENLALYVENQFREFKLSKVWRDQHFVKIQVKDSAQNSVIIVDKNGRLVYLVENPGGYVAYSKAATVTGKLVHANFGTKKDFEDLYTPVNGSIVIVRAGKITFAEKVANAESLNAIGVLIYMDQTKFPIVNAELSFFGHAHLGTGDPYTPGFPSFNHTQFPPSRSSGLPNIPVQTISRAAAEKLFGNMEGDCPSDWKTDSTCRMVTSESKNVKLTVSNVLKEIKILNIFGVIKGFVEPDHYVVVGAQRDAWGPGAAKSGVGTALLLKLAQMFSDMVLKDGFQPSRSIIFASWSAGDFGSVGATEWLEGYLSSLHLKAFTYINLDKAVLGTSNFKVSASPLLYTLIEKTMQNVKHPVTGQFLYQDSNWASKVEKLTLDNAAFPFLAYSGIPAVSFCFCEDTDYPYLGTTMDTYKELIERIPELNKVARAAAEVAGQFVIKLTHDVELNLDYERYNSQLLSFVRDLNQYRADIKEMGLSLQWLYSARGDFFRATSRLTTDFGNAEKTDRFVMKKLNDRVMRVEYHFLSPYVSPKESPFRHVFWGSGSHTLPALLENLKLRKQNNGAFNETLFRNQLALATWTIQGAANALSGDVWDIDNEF

| Binder | EC50 [1] | EC50 [2] | Kd [3] | Binding affinity [4] | Binding affinity [5] | Binding affinity [6] | Binding affinity [7] | Kd [8] | Kd [9] | koff [9] | kon [9] | DMPK oligo conjugate binding [10] | DMPK oligo conjugate binding [11] | EC50 [12] | EC50 [13] |
| --- | --- | --- | --- | --- | --- | --- | --- | --- | --- | --- | --- | --- | --- | --- | --- |
| B1 | 4.7 nM | 0.6 nM | 0.515 nM | 15.6 nM | 1.49 nM | 4.7 nM | 0.6 nM | 0.345 nM | 0.345 nM | 8.34e-05 s⁻¹ | 242000 M⁻¹ s⁻¹ |  |  |  |  |
| B2 | 1.4 nM | 0.4 nM | 0.51 nM | 5.01 nM | 0.5 nM | 1.4 nM | 0.4 nM | 0.396 nM | 0.396 nM | 9.98e-05 s⁻¹ | 252000 M⁻¹ s⁻¹ |  |  |  |  |
| B3 |  |  |  |  |  |  |  |  |  |  |  | 10.2 nM | 110 nM | 10.2 nM | 110 nM |
| B4 | 3.5 nM | 6 nM | 3.01 nM | 0.63 nM | 92.3 nM | 3.5 nM | 6 nM | 0.991 nM | 0.991 nM | 0.000672 s⁻¹ | 678000 M⁻¹ s⁻¹ |  |  |  |  |
| B5 |  |  |  |  |  |  |  |  |  |  |  |  |  | 2.3 nM | 33.4 nM |
| B6 |  |  |  |  |  |  |  |  |  |  |  | 7.59 nM | 2.84 nM | 7.6 nM | 2.8 nM |
| B7 | 122 nM | 1.5 nM | 1.35 nM | 878 nM | 0.46 nM | 122 nM | 1.5 nM | 1.5 nM | 1.5 nM |  |  |  |  |  |  |
